# Laboratory results taken from patent publication US6261772.
# Columns and labels:
# [1] = target: T1, VP16-HA-Tap full length (Homo sapiens) (UniProt Q9UBU9); test: one_hybrid
# T1 sequence: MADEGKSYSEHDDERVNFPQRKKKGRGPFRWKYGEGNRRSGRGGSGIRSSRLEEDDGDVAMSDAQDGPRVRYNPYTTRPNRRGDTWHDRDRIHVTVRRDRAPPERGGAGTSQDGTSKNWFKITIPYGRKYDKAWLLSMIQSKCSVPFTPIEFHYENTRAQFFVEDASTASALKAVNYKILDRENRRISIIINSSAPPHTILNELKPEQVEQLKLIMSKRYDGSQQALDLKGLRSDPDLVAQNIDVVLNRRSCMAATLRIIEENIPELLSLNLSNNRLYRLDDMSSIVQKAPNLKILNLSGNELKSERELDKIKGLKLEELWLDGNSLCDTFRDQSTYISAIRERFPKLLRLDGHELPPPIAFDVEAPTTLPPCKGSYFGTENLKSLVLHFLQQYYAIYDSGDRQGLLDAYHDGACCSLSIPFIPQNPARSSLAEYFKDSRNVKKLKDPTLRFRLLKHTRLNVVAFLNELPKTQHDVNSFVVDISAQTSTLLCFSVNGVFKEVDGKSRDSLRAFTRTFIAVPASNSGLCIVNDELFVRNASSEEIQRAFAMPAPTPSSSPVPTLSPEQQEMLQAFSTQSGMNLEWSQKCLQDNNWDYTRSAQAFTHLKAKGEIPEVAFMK
# [2] = target: T2, Tat-Tap full length (Homo sapiens) (UniProt Q9UBU9); test: cell_activity; details: 293T
# T2 sequence: T1 sequence
Substance,activity ([1]; yeast three-hybrid) [mOD/ml],"activity ([1]; yeast three-hybrid beta-gal, VP16 alone 11) [mOD/ml]",activity (fold activation) [2]
CTE antisense,< 4,,
HIV-1 TAR,< 4,,
MPMV CTE,,602,20
iron response element,< 4,,
